Test results from patent US20090042993.

Tests used:
[1] = target: BACE1Ala (BACE1 with the seven acetylated lysine residues mutated to alanine), P56817
[2] = target: BACE1-myc (myc-tagged at the C-terminus version of BACE1), P56817
[3] = target: BACE1 (β-site APP cleaving enzyme 1), native form BACE1WT, P56817
Sequence of BACE1 (β-site APP cleaving enzyme 1), native form BACE1WT, P56817 (P56817 46-501): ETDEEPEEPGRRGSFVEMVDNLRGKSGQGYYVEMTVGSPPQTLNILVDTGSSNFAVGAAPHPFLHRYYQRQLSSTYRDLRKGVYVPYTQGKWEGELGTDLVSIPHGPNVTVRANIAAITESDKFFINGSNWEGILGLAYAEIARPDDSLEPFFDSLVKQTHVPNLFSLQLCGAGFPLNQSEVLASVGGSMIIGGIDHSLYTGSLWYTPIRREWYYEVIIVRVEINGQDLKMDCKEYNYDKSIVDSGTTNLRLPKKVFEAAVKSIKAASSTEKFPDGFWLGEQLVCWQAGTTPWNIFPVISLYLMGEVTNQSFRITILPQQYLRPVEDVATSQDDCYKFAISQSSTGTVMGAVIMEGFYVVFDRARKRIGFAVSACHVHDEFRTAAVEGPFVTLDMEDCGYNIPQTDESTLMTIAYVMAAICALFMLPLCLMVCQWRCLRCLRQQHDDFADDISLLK

Sequence of BACE1-myc (myc-tagged at the C-terminus version of BACE1), P56817 (P56817 46-501): as above
Sequence of BACE1Ala (BACE1 with the seven acetylated lysine residues mutated to alanine), P56817 (P56817 other isoform, or with tags, fused parts or gaps, change not shown): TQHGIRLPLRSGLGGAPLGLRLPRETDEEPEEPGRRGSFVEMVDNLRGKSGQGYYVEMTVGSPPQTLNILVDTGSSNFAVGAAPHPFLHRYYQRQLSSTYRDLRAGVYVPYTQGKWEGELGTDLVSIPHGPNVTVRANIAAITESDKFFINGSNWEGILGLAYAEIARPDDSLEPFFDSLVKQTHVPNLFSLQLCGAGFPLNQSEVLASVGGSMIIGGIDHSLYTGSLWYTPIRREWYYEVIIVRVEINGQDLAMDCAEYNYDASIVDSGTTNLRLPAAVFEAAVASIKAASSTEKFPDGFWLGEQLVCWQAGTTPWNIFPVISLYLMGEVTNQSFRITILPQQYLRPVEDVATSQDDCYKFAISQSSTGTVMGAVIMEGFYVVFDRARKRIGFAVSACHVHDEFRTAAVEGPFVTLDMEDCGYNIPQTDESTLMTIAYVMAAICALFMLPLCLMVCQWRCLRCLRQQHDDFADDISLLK

B1: purified recombinant HAT fragment of p300 (histone acetyl transferase domain of recombinant CBP/p300) (protein)
chain: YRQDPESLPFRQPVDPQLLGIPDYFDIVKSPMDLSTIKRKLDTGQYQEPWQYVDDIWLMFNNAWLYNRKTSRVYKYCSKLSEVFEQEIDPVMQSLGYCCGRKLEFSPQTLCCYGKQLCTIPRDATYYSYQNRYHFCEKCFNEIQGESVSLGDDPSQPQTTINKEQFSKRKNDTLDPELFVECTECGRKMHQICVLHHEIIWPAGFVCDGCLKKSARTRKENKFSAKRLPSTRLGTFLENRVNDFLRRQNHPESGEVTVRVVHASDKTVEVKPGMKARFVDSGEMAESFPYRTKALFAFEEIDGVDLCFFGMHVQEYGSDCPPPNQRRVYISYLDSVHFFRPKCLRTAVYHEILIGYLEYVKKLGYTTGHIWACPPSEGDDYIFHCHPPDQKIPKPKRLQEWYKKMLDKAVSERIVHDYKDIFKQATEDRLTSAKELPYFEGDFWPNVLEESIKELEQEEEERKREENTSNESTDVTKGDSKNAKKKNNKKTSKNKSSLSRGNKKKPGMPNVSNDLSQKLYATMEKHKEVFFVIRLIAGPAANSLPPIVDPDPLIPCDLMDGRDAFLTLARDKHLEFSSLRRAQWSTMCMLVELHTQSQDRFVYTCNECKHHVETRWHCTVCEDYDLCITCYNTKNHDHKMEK
- in vitro acetylation ([3H]Acetyl-CoA incorporation into BACE1, scintillation counting) [1]: but not BACE1Ala
- in vitro acetylation ([3H]Acetyl-CoA incorporation into BACE1, scintillation counting) [2]: BACE1 can be acetylated in vitro, provided that is incubated in the presence of an enzymatically active acetyltransferase
- in vitro acetylation ([3H]Acetyl-CoA incorporation into BACE1, scintillation counting) [3]: resulted in acetylation of BACE1WT
